From the supplement of paper PMC10724198
± gives the standard deviation of the averaged measurements.

tested on: Saccharomyces cerevisiae; assay: protein stability index of tFT-peptide fusion (C-terminal peptide) (PSI (0-1 scale)); higher = more stable (slower turnover); conditions: genetic background: wild type; temperature: 30 C
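Also: PSI is a weighted mean of sequencing reads over stability bins, variants kept only with over 10 reads, mCherry proximal and sfGFP distal, peptide attached via GGGS linker.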

Point of comparison: SSPSSFLTLLFI, protein stability index 0.621 ± 0.069. Against it:
- VMLGGWRVPGER — higher, 0.7754 ± 0.0033
- PPPPTPPYTPVP — within error, 0.623 ± 0.032
- RNILMFSNGVDE — within error, 0.681 ± 0.014
- GCWHFWQFFCHY — within error, 0.678 ± 0.024
- NIAPPNHASIVL — within error, 0.695 ± 0.014
- PPPVPLPPPRSL — within error, 0.736 ± 0.055
- GVFGWAGCGVVL — higher, 0.7188 ± 0.0043
- CTSSVRARRRFR — within error, 0.698 ± 0.043
- AVAHLSCTSRFG — higher, 0.6944 ± 0.0037
- KNKRTQKKKRKK — higher, 0.7299 ± 0.0016
- LLLSALSRRPSF — within error, 0.678 ± 0.023
- DLATSVVYIVTV — lower, 0.506 ± 0.0077
- PRPLSPLPPSAL — within error, 0.66 ± 0.05
- GAKSENSLTTVQ — within error, 0.673 ± 0.013
- YKKVKADKKKRM — within error, 0.687 ± 0.017
- IKKLYIICQQMK — within error, 0.666 ± 0.035
- NSRMSRYTTPYG — within error, 0.68054 ± 0.00052
- TPPHNRERPTVQ — within error, 0.657 ± 0.03
- HGGSFSAFWYLL — within error, 0.676 ± 0.027
- EARGPGPVGGGT — within error, 0.702 ± 0.085
- VRCKGLGLAVCA — within error, 0.541 ± 0.062
- DTLFNRFLHTSI — within error, 0.69 ± 0.046
- SWLRPTCLDLYF — higher, 0.76 ± 0.029
- AAPAAPATPSPR — within error, 0.716 ± 0.065
- LGIVSLDWLWLR — within error, 0.513 ± 0.043
- GGAAWRRGVGGV — within error, 0.66 ± 0.025
- FGAATLFLLAPC — within error, 0.55 ± 0.02
- IRRKLINYIKKG — within error, 0.619 ± 0.066
- EIGSWKTISILV — lower, 0.487 ± 0.024
- PVPPSARHSSPP — within error, 0.66 ± 0.021
- SPPPPLTSLVPP — within error, 0.688 ± 0.075
- PPPSPAPLPAGP — within error, 0.682 ± 0.061
- KGHQGGLSEGMI — within error, 0.6 ± 0.092
- TNTPSYSSRAEF — within error, 0.733 ± 0.11
- PPRSPPPTPPLF — within error, 0.611 ± 0.01
- SGSGVLVGCLGS — within error, 0.68 ± 0.038
- VGVLRTSRASPH — within error, 0.646 ± 0.031
- VLPPLSALAPFD — higher, 0.764 ± 0.029
- LFDGPFPHLFPT — within error, 0.718 ± 0.091
- SASVARSRRCVR — within error, 0.612 ± 0.057
- LYSGIAVSATSL — within error, 0.734 ± 0.048
- GSLGTTTILRKT — within error, 0.67 ± 0.064
- LFITTSLFRPFA — lower, 0.53 ± 0.015
- KKWRKKTEHDKE — higher, 0.729 ± 0.028
- VSCHSPPVPHDP — higher, 0.702 ± 0.011
- VRPLPAPVQPHP — higher, 0.741 ± 0.019
- PPLPLTLRSSPS — within error, 0.677 ± 0.031
- GRRVVRGWLVRR — within error, 0.683 ± 0.095
- GVGLLAHLLIYR — within error, 0.556 ± 0.0086
- PSSPPCPPPLPS — within error, 0.624 ± 0.02
- ERGKGSRVGGST — within error, 0.643 ± 0.1
- PRHYSPPPVPSR — within error, 0.686 ± 0.026
- VVGNGGWVEGEV — the same, 0.621 ± 0.13
- CSSLPPFPALPR — within error, 0.701 ± 0.026
- TCDSGSEDNVAA — higher, 0.7053 ± 0.0032
- HSPSSLPRLRPQ — the same, 0.621 ± 0.044
- VVPSLLVLPFFC — lower, 0.51 ± 0.01
- PPLALPPGPARP — higher, 0.738 ± 0.016
- IECLRVVRSRCG — within error, 0.6724 ± 0.0023
- GKCFSFSFNCLH — lower, 0.521 ± 0.023
- PFARPPPSPSPR — higher, 0.707 ± 0.012
- APLPPRSALVGL — within error, 0.6759 ± 0.0011
- LPVGYVCGLWVG — within error, 0.543 ± 0.038
- PRCRSLPPLRVL — higher, 0.6975 ± 0.0037
- GARRVVFSSVLQ — within error, 0.774 ± 0.13
- LTTFLLTRIVGA — within error, 0.567 ± 0.035
- SPPPPPLPPAYL — within error, 0.681 ± 0.012
- LVFREISSRHEI — higher, 0.711 ± 0.018
- AVWGWAFASVGG — higher, 0.735 ± 0.04
- ALLRSLSSLPLV — within error, 0.602 ± 0.011
- NRQNNYANDIQK — within error, 0.713 ± 0.045
- RNGGSTWPLLGA — higher, 0.721 ± 0.017
- RSLGLVGWGFWG — within error, 0.762 ± 0.12
- PGMTILETTIMD — within error, 0.691 ± 0.015
- LFPLHLPSPPPG — higher, 0.7207 ± 0.0018
- SSGCVNILIDLF — within error, 0.638 ± 0.011
- VLAWVPNFALLP — within error, 0.677 ± 0.063
- PSPPLPPRPPTL — higher, 0.743 ± 0.013
- PFCVALVDVGFW — within error, 0.564 ± 0.029
- RFAEEDFIVERT — higher, 0.727 ± 0.019
- ALSTFTGFLRIP — within error, 0.55 ± 0.01
- RGEARDARGLEW — within error, 0.763 ± 0.12
- SLASYFFHVSHS — higher, 0.7127 ± 0.0064
- HPVSVKPSESSR — within error, 0.668 ± 0.073
- PSSPSPPYPFAP — within error, 0.684 ± 0.016
- WFRLRFASGRRS — within error, 0.682 ± 0.054
- SPRYLLFSLRSP — within error, 0.714 ± 0.11
- KIFRNKHENDLK — within error, 0.695 ± 0.026
- PSPPSPPPPPPT — within error, 0.749 ± 0.06
- RHLSRSVSKVLR — within error, 0.629 ± 0.06
- WIGRSVGVELCR — within error, 0.807 ± 0.13
- RPRNRRGGRGDE — within error, 0.672 ± 0.0062
- PPLRPAADFRTT — within error, 0.733 ± 0.093
- PPLPPSSPRSLL — within error, 0.701 ± 0.018
- ASRRSGSYTGYR — within error, 0.672 ± 0.035
- VRAVGSIILPPG — within error, 0.6558 ± 0.00093
- PAPHPRLTPIFL — within error, 0.749 ± 0.11
- WGRGETLCSSVP — higher, 0.72 ± 0.011
- VCGGLGCSVVLE — within error, 0.721 ± 0.078
- HVKLLSSNGPLV — within error, 0.671 ± 0.031
